Reference: paper PMC2670837, “Staphylococcus aureus immunodominant surface antigen B is a cell-surface associated nucleic acid binding protein”

T1: IsaB (recombinant, untagged) (Staphylococcus aureus 10833) (UniProt Q9LAB5)
T1 sequence: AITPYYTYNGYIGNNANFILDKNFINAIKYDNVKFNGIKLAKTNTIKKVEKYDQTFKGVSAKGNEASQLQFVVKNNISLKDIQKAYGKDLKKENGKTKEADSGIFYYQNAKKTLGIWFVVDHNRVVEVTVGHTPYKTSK

T2: IsaB (recombinant, untagged) (Staphylococcus aureus 10833, UniProt Q9LAB5 37-175)
T2 sequence: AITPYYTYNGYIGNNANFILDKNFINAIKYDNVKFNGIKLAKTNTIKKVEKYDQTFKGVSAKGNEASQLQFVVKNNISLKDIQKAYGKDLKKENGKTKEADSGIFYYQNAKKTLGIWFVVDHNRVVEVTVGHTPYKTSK


How the values were obtained:
[1] = target: T1, IsaB (recombinant, untagged) (Staphylococcus aureus 10833); test: SPR; details: EMSA: 20 mM HEPES, 1 mM DTT, 20 mM KCl, 200 ug/ml BSA, 10% glycerol, room temperature, 10 min, SPR: 0.33x HBS-EP + non-specific binding inhibitor, SA chip …
[2] = target: T2, IsaB (recombinant, untagged); test: EMSA; 240 pmol-3.84 nmol IsaB; shift abolished by salmon sperm DNA or yeast tRNA, not by dNTPs; EMSA: 20 mM HEPES, 1 mM DTT, 20 mM KCl, 200 ug/ml BSA, 10% glycerol, room temperature, 10 min; SPR: 0.33x HBS-EP + non-specific binding inhibitor, SA chip, Biacore T100; pull-down: 10 mM HEPES, 60 mM KCl, 4 mM MgCl2, 0.1 mM EDTA, 0.1 mg/ml BSA, 0.25 mM DTT, on ice; pH not stated; details: protein: recombinant; label: Alexa Fluor 594 (ULYSIS)

| Molecule | Kd (M (unit not given)) [1] | also measured |
| --- | --- | --- |
| ATTGVGTTATCAATAATCTTA / GGTGGGATCCTTGAAGGATAAGATTA | 8.1e-09 | – |
| ATTGVGTTATCAATAATCTTA [BioticaPRO (ssDNA SPR bait; identity inferred)] | 1.08e-08 | – |
| TNGUGCAAUUACAAAUAUUUCCGUUUAAUUAUAACAACAAUCUAUUGCA [WTUTR(RNA) (RNA SPR bait; identity inferred)] | – | Kd (M (unit not given)) ([1]; ribonucleotides with 3' terminal deoxy GCA): 1.65e-08 |
| GUUUAAUUAUAACAACAAUCUAUUGCA (ssRNA) [icaUTR6] | – | binding result [2]: binds |
